PMC3601957, “Structural Basis of Rap Phosphatase Inhibition by Phr Peptides” (PLoS Biology, 2013)

Columns and labels:
RapF [1] = target: T1, RapF (Bacillus subtilis, UniProt P71002); assay: Thermal-shift peptide binding assay, wild-type RapF; parameters: species or system B. subtilis; conditions: peptide 1 mM, PhrA and PhrE: unpublished data
T1 construct: 6xHis (N, cleaved yes); made in house; host or cells: Escherichia coli BL21 RIL
T1 sequence (P71002 whole entry, looked up): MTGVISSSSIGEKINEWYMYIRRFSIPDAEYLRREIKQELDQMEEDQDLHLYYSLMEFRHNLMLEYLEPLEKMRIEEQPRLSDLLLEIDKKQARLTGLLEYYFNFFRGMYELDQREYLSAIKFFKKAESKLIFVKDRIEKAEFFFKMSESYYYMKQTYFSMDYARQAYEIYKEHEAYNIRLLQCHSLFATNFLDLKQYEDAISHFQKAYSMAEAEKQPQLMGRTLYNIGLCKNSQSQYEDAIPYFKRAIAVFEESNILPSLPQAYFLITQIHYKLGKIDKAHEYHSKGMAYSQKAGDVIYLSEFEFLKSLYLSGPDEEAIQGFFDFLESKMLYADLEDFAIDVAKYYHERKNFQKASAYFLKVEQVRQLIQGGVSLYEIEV
Method: The thermal-shift assay was conducted in a 7500 Fast Real-time PCR System (Applied Biosystems). Final melt conditions were 20 mM Tris-HCl (pH 8), 100 mM NaCl, 20 µM RapF, and 5× SYPRO Orange (Sigma-Aldrich). The final concentration of the inhibitory peptides was 1 mM when they were present. The assays were carried out at a final volume of 20 µl in 96-well PCR plates. Samples were heated at 1°C/min. Fluorescent intensity was plotted versus temperature and integrated with the GraphPad Prism 4 software using a Boltzmann model to calculate melting temperatures.

RapA = conditions: cited from earlier work
Source text: The RNPP family of Gram-positive quorum sensors presents a characteristic C-terminal TPR domain with seven TPR repeats for the structurally known Raps (RapF and RapH) (Figures 1E and S3),[31]. The RapF TPR domain folded in a large superhelix to generate a pseudo circular structure that was closed in a wide channel (8,588 Å^3, calculated by the CASTp software) by the interaction of the terminal part of TPR7 (and the following C-terminal tail) with the initial part of TPR1 (Figure 1). As a channel, the generated ring-like structure was open on both faces (Figures S4, upper panel) ... || Peptide anchoring should be independent of its sequence. Thus, it is primarily mediated by interactions with the peptide main chain. These interactions are mainly polar in nature and involve the side chain hydrogen bonds and salt bridges of Tyr66, Tyr152, Gln183, Arg223, Asn227, Gln263, and Asp338 with the PhrF backbone (Figure 2). Additionally, the conserved Arg at position 2 of the Phr peptides is anchored by a salt bridge with the side chain of a conserved Asp residue (Asp194 in RapF) from TPR3 (Figure 2). […] The conserved asparagine in the RNPP family (Asn227 in RapF) interacts with the PhrF backbone and supports the key role of this residue in peptide accommodation.

RapF [2] = target: T1, RapF; assay: Limited proteolysis with trypsin, wild-type RapF; assay type: biochemical, B. subtilis; conditions: wild-type RapF 1.5 mg/ml, peptide 1 mM, trypsin 1:10,000, 37°C, 0-90 min, SDS-PAGE / native PAGE (60 min); PhrA and PhrE: unpublished data
Method: Wild-type RapF and mutant variants (RapF^E303K, RapF^E303A, RapF^N227A, and RapF^D194A) at a concentration of 1.5 mg/ml were pre-incubated in lysis buffer (10 mM Tris-HCl [pH 8], 0.1 mM EDTA, 1 mM β-mercaptoethanol, 100 mM NaCl, 5% glycerol, and 5 mM CaCl2) in the presence (1 mM) or absence of inhibitory peptides at room temperature for 30 min. The protein was subjected to proteolysis by trypsin (1∶10,000) at 37°C and aliquots of the reaction mixture were taken after 0, 10, 30, and 90 min of incubation, mixed with SDS–PAGE loading buffer and immediately boiled to stop the enzyme reaction. Samples were then separated on 12% acrylamide SDS–PAGE and stained with Coomassie brilliant blue. For the peptide titration experiments, RapF was incubated in lysis buffer with increasing concentrations of PhrF at room temperature for 30 min and subjected to limited proteolysis with trypsin(1∶10,000) at 37°C for 60 min. The reactions were stopped SDS–PAGE loading buffer and analyzed by SDS–PAGE.

RapF^E303K = target: T2, RapF^E303K (B. subtilis, UniProt P71002 1-381, E303K); assay: native gel or EMSA; titration on 8% native gel; 20 µg protein, peptide 50 nM to 1.2 mM in 20 µl buffer A, 15 min at room temperature; midpoint of the transition taken as the apparent Kd; conditions: both partners purified
T2 construct: RapF of Bacillus subtilis with Glu303 changed to Lys, made from pPROEX-RapF by site-directed mutagenesis; Same construct as m1 with the point mutation; also called RapF Glu303Lys; source: E. coli BL21 RIL, purified as native RapF; not shown: His6, N-terminal, cleaved
T2 sequence: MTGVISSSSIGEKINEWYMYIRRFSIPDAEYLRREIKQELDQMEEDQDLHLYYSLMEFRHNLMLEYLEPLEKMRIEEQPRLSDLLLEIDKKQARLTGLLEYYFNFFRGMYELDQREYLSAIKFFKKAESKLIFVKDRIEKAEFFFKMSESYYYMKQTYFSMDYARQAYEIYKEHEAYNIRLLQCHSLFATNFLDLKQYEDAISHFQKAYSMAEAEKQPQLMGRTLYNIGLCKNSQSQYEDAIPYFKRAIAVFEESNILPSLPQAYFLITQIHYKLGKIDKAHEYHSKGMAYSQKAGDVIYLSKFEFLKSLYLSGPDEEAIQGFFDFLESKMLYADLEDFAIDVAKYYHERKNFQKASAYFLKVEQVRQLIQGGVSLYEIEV

RapF^N227A = target: T3, RapF^N227A (B. subtilis, UniProt P71002 1-381, N227A)
T3 sequence: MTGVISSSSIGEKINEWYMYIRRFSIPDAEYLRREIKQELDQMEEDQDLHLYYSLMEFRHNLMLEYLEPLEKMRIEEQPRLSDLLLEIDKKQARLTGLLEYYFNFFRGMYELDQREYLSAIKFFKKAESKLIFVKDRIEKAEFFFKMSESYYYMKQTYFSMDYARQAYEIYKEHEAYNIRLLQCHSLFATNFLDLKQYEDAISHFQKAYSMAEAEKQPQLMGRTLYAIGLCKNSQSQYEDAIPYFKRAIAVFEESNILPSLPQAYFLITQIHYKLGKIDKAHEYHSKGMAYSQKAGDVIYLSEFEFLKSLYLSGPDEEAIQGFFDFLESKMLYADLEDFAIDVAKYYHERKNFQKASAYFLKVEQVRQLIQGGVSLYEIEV

RapF^D194A = target: T4, RapF^D194A (B. subtilis, UniProt P71002 1-381, D194A)
T4 sequence: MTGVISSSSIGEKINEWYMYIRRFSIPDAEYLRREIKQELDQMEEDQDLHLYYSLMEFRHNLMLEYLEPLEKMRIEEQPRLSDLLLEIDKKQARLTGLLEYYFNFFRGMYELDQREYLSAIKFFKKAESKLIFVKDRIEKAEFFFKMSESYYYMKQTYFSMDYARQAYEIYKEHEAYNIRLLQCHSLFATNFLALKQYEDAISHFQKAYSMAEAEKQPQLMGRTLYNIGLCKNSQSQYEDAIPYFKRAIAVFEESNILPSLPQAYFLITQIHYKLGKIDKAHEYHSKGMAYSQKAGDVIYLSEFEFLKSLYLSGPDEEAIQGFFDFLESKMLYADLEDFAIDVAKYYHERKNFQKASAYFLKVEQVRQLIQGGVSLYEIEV

RapF^E303A = target: T5, RapF^E303A (B. subtilis, UniProt P71002 1-381, E303A); assay: native gel or EMSA; titration on 8% native gel; 20 µg protein, peptide 50 nM to 1.2 mM in 20 µl buffer A, 15 min at room temperature; midpoint of the transition taken as the apparent Kd; conditions: both partners purified
T5 construct: RapF of Bacillus subtilis with Glu303 changed to Ala, made from pPROEX-RapF by site-directed mutagenesis; Same construct as m1 with the point mutation; also called RapF Glu303Ala; source: E. coli BL21 RIL, purified as native RapF; not shown: His6, N-terminal, cleaved
T5 sequence: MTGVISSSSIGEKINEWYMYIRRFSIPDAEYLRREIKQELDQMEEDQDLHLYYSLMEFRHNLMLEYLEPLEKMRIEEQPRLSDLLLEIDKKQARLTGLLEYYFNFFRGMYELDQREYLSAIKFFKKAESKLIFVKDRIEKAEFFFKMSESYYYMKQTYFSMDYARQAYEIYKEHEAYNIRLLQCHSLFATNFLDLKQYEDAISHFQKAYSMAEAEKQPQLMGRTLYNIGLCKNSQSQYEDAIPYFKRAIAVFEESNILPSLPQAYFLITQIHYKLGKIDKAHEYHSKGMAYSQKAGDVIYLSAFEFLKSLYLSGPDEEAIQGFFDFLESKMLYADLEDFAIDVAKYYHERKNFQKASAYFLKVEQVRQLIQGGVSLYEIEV

RapF [3] = target: T6, RapF (B. subtilis, UniProt P71002 1-381); assay: as above; conditions: both partners purified
T6 construct: RapF of Bacillus subtilis, amplified from genomic DNA and cloned in pPROEX-HTa; The text speaks of residues up to Val381, which fits the whole protein; also called wild-type RapF; native RapF; source: E. coli BL21 RIL, purified (HisTrap, TEV digestion, Superdex 200); not shown: His6, N-terminal, cleaved
T6 sequence: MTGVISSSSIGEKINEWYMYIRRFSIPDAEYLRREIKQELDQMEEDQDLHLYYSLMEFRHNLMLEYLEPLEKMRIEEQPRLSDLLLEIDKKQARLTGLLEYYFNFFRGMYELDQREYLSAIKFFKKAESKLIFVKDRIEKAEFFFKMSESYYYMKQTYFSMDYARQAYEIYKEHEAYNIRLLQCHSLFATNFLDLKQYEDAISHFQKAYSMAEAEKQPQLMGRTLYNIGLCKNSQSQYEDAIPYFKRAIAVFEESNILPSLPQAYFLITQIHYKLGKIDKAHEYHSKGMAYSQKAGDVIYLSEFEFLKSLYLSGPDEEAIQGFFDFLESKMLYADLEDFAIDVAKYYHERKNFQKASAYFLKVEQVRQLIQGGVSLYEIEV

RapF [4] = target: T6, RapF; assay: thermal-shift assay (SYPRO Orange); 20 µM RapF, peptides 1 mM; 20 mM Tris-HCl pH 8, 100 mM NaCl; heated at 1°C/min; conditions: both partners purified

PhrA: PhrA, inhibitor peptide of RapA; non RapF partner peptide (ARNQT)
thermal stabilization by peptide (RapF [1]): presented identical melting transitions to those observed in the absence of peptide
sensitivity of RapA Asp192 and His260 mutants to peptide (RapA; RapA Asp192 and His260 mutants, Spo0F∼P dephosphorylation unaffected): insensitive to the inhibitory activity of PhrA
binding to RapA Tyr224 or His260 to alanine mutants (RapA; RapA Tyr224Ala or His260Ala, no effect on enzymatic activity): completely abolishes the capacity to bind PhrA
binding to RapA mutant, Asn to Ala (position of RapF Asn227) (RapA; RapA mutant, intact capacity to bind Spo0F): impaired capacity to bind the PhrA peptide
requirement for inhibition of RapA (RapA): requirement of the free terminal carboxylate group
sensitivity of RapA mutants at positions of RapF Tyr226 and Leu230 (RapA; functional RapA variants): completely insensitive to the PhrA peptide
protection of RapF against trypsin digestion (RapF [2]): did not protect against trypsin attack

PhrE: PhrE, non RapF partner peptide (SRNVT)
thermal stabilization by peptide (RapF [1]): presented identical melting transitions to those observed in the absence of peptide
protection of RapF against trypsin digestion (RapF [2]): did not protect against trypsin attack

B1: PhrC (peptide)
peptide: ERGMT
notes: mature active form of the PhrC precursor; also called PhrC peptide; RapC (PhrC) peptide
Kd (RapF^E303K): 19.6 µM

B2: PhrF (peptide)
peptide: QRGMI
notes: mature active form of the PhrF precursor; The purchase from Genescript is stated for the crystallisation; no other source is named; also called PhrF peptide; source: bought: Genescript
Kd (RapF^N227A): > 1200 µM
Kd (RapF^D194A): > 1200 µM
Kd (RapF^E303A): 29 µM
Kd (RapF^E303K): 13.2 µM
Kd (RapF [3]): 3.1 µM
increment in the melting temperature of RapF with PhrF (RapF [4]): ~20 °C
